We go through one substance from PMC2199739.

The target in test [1] is urokinase-type plasminogen activator receptor (uPAR) on HT 1080 cells (human (endogenous in HT 1080)) (UniProt Q03405). Description: radioligand binding.
Test [2] has as its target human uPAR overexpressed on MCF-7 cells (clone M5) (human) (UniProt Q03405). Description: radioligand binding.

In general, Kd refers to the equilibrium constant for the complex coming apart. Lower therefore signals a tighter complex. In the case of “^125I-DIP-uPA (radioiodinated two chain urokinase-type plasminogen activator inactivated with diisopropylfluorophosphate) (ligand)”, the Kd in test [1] and in test [2] was 1.2 nM throughout.
